System: mouse basophilic leukemia cells transfected with the human FcεRI IgE receptor (hRBL)
Assay: IgE-mediated release of β-hexosaminidase (basophil degranulation) in hRBL cells
Assay type: cell-based
Conditions: rIL10 treatment; versus cells treated with Bet v1 alone; serum from seven birch pollen-allergic donors
Method: The effect of Pep 1 on IgE-mediated release was studied using mouse basophilic leukemia cells transfected with the human FcεRI IgE receptor (hRBL). The hRBL cells were sensitized with serum from seven patients allergic to birch pollen. The cells were stimulated with the antigen and its interaction with immobilized IgEs resulting in the release of β-hexosaminidase.
When cells were treated with a composition containing Pep 1 to 1 μM (FIG. 10A) or rIL10 (FIG. 10B), the amount of Bet v 1 required to induce the same amount of degranulation was higher than for cells treated with Bet v1 alone (P<0.05). Amount of rBet v 1 (ng/mL) required to induce half the release of β-hexosaminidase using serum from seven birch pollen-allergic donors after treatment with Pep 1 (A) (P<0.05) and rIL10 (B) * P<0.05.

B1: rIL10: recombinant IL-10, used as control (protein, UniProt P22301 19-178, looked up)
Interleukin-10: SPGQGTQSENSCTHFPGNLPNMLRDLRDAFSRVKTFFQMKDQLDNLLLKESLLEDFKGYLGCQALSEMIQFYLEEVMPQAENQDPDIKAHVNSLGENLKTLRLRLRRCHRFLPCENKSKAVEQVKNAFNKLQEKGIYKAMSEFDIFINYIEAYMTMKIRN
With B1 the “amount of Bet v 1 required to induce the same amount of degranulation” value was “higher”.
